This is an account of results in patent publication US5756454.

Experiment [1] has as its target collagen receptor on human platelets (human).
Experiment [2] has as its target thrombin.
Experiment [3] addresses collagen receptor on human platelets (human). This is another data set of the same source.
The target in experiment [4] is collagen receptor (VL A 2) on MTLn3 cells (rat mammary tumor cells) (rat).
Experiment [5] addresses collagen receptor on human platelets (human). This is another data set of the same source.
Experiment [6] concerns the target collagen receptor (VL A 2) on MTLn3 cells (rat mammary tumor cells) (rat). This is another data set of the same source.
Experiment [7] addresses collagen receptor on human platelets (human). This is another data set of the same source.

Take “collagen-induced platelet aggregation inhibitor isolated from saliva of Triatoma pallidipennis”: the released ATP, % of total ATP content, of collagen-treated platelets (30 µl = 10 µg protein of "Superose"-pool; 49% without inhibitor) (% of total ATP content) in experiment [1] came to 2. Further, the maximal aggregation of filtrated platelets induced with thrombin (0.06 U/ml), with 200 µl "Superose"-pool (control 75%) (% maximal aggregation) in experiment [2] was 75. Moreover, the adherent platelets per mm^2 on collagen type I (50 µl of "Superose"-pool at 0.5 mg protein/ml; 13500 without inhibitor) (adherent platelets per mm^2) in experiment [3] is 6500. Moreover, the cell attachment (cpm) of 51Cr-labelled MTLn3 cells to collagen type III (10 µl of "Superose"-pool; 2215 cpm without inhibitor) in experiment [4] stood at 1080 cpm. In addition, in experiment [5], the IC50 of inhibition of collagen-induced platelet aggregation (highly purified protein) is 50 nM and the IC50 of inhibition of collagen-induced platelet aggregation (partially purified "Superose"-pool) was 2.5 µg per ml. The IC50 of adhesion-inhibition of metastatic tumor cells to collagen (highly purified protein) in experiment [6] was determined as 100 nM. This substance showed an inhibition of collagen-induced aggregation of human platelets (platelet-rich plasma, aggregometer; "Superose"-pool) (% inhibition of aggregation) in experiment [7] of 70.
